Biological target: T1, recombinant I-domain of α2 integrin subunit (human, UniProt P17301 169-366)
T1 construct: domain: I-domain; Expressed from pQE30 and purified by Ni2+-chelating chromatography; also called α2-I domain
T1 sequence: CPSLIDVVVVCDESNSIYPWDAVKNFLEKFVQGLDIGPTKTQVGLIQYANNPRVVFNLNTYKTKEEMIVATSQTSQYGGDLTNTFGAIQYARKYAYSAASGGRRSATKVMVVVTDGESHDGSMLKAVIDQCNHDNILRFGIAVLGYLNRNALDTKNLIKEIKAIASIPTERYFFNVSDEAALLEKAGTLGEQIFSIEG
Assay: SPR (BIACORE 3000), P176 immobilized on a CM5 chip, α2-I as analyte, 1 mM MgCl2; Scatchard analysis of the equilibrium responses

B1: recombinant P176 (Scl1.41 recombinant protein) (other)
chain: EDSETATARTKLLEKLTELRSQSQDRVPQTSDITQAYTLWGTSYDSVELYKYLQQIEEYLQKQKYHEEQWKKEITDGLKSGALRGEKGEAGPQGEKGLPGLTGLPGLPGERGPRGPKGDRGETGAQGPVGPQGEKGEAGTPGKDGLRGPQGDPGAPGKDGAPGEKGDRGETGAQGPVGPQGEKGEAGTPGKDGAPGEKGEKGDRGETGATGAQGPQGEAGKDGAQGPVGPQGEKGETGAQGPAGPQGEKGETGAQGPAGPQGEAGQPGEKAPEKSPEVTPTPEMPEQPGEQAPEKSKEVTPAPEKWSHPQFEK
notes: Expressed in E. coli from pSL176 (scl1.M41 allele, GenBank AY452037); also called Scl P176
  Kd: 17 nM

— patent US20040214282A1 (BOARD OF TRUSTEES OF THE UNIVERSITY OF ARKANSAS, published 2004)
